Results published in paper PMC5966398, “Conserved RNA binding activity of a Yin-Yang 1 homologue in the ova of the purple sea urchin Strongylocentrotus purpuratus”.

Molecular target: SpYY1 (recombinant) (Strongylocentrotus purpuratus, UniProt A0A7M7RHL1 1-400)
Experiment: EMSA; 250 nM protein, 10 nM probe; 50 mM NaCl, 50 mM Tris-HCl pH 7.5, 2 mM MgCl2, 1 mM DTT, 5% glycerol, room temperature 20 min; 10 nM probe; recombinant protein 0.5 uM (Methods) or 250 nM (Fig. 4 legend); lysate reactions with poly-dIdC (DNA) or yeast tRNA (RNA)
Conditions: tags: His tag and EK site from pRSetB (text says C-terminal)

Sequence of SpYY1 (recombinant) (A0A7M7RHL1 entry or part of it): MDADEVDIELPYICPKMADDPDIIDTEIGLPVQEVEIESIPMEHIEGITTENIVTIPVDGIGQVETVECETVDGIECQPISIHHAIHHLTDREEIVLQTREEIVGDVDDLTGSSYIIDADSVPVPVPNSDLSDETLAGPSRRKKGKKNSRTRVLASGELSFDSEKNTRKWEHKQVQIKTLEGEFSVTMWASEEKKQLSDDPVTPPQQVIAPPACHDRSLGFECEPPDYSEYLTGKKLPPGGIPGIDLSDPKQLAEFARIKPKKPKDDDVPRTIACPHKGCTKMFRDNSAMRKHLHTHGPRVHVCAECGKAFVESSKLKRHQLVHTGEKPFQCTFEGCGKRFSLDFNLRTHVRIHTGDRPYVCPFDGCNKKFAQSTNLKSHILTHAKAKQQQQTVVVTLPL

Row | Binder | binding result (label: 5'-32P when probe, single strand) | binding result (label: 32P end-fill when probe)
1 | UUUUUUUUUUUUUUUUUUUU (ssRNA) [U(20) RNA] | binds | –
2 | YY1 consensus DNA element (YY1C) (dsDNA) DNA 1: CTAGGCGCTCCCCGGCCATCTTGGCGGCTGGT DNA 2: ACCAGCCGCCAAGATGGCCGGGGAGCGCCTAG | – | binds
